Test results: patent US20230295345A1 (published 2023)

T1: mouse TMPRSS6 expressed on HEK293T cells (MoTMPRSS6-(His)6) (mouse, UniProt Q9DBI0 1-811)
T1 construct: stably expressed in HEK293T cells; also called murine TMPRSS6
T1 sequence: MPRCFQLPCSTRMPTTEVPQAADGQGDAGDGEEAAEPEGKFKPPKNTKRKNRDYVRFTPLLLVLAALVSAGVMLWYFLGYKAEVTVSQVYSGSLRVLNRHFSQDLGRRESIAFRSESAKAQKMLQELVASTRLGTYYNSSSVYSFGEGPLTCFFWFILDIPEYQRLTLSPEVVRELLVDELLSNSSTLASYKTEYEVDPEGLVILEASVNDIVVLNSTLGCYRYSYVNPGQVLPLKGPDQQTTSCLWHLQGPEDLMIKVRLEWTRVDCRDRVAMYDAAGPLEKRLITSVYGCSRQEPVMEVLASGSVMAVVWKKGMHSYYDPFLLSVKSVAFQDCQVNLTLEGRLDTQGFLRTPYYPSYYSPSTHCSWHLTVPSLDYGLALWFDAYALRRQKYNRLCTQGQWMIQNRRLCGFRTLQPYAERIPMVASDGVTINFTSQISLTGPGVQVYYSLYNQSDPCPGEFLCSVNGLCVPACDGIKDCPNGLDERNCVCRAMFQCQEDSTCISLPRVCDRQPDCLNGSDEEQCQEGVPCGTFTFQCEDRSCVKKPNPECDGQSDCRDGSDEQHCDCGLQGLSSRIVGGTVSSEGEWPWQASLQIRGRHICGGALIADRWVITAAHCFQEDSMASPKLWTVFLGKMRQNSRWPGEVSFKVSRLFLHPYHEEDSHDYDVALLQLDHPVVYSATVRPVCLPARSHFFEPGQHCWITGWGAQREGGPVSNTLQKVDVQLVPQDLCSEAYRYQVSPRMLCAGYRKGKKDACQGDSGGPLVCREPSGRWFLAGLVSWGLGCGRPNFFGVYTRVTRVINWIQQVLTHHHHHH

T2: cynomolgus monkey TMPRSS6 expressed on HEK293T cells (CynoTMPRSS6-(His)6) (cynomolgus monkey, UniProt Q8IU80 10-811 (human entry))
T2 chain: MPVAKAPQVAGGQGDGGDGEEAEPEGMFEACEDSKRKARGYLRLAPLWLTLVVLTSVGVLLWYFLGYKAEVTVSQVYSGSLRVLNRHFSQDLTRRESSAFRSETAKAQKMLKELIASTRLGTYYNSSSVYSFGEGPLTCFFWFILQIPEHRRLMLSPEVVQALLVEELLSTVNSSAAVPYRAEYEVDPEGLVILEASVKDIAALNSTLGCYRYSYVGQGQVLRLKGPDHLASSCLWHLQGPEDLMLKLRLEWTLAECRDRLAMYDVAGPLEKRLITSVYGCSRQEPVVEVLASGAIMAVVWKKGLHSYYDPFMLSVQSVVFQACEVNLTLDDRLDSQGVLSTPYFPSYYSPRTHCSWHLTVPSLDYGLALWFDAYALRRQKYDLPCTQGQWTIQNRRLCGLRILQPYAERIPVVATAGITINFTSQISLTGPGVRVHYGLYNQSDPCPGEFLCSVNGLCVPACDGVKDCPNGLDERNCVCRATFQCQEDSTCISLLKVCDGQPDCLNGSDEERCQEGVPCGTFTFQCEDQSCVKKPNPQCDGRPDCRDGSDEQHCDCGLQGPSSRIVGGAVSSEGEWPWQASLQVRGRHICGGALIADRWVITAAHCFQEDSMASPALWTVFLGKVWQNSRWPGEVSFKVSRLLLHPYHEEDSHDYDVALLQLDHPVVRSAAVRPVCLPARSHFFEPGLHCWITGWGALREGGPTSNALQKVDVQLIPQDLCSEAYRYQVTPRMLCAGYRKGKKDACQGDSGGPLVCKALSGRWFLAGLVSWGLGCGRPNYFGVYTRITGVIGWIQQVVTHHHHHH

B1: MWTx-003 anti-TMPRSS6 antibody (antibody, mouse IgG2b, kappa, V domains shown)
VH: EVQLQQSGAELVKPGASVKLSCTASGFNIEDYYIHWVKERTEQGLEWIGRIDPEDGETTYAPQFQGKATIIPDTSSNTAYMQLSSLTSEDAAVYYCARSIYLDPMDYWGQGTSVTVSS
VL: DIVMTQSHKFMSTSVGDRVSITCKASQDVTTAVAWYQQKPGQSPKILIYWATTRHTGVPDRFTGSISGTTYILTISSVQAEDLALYYCQQHYSTPYTFGGGTKLEIKR
notes: Mouse monoclonal antibody from a hybridoma (ATCC PTA-126761); also called r4K12B (recombinantly expressed version, same HC and LC)
B2: hzMWTx-001Var anti-TMPRSS6 antibody (antibody, human IgG1, kappa, N297A, V domains shown)
VH: EVQLVQSGAEVKKPGASVKVSCKASGYTFTSYWITWVRQAPGQRLEWIGNIYPGSGSTYYNEKFKSKATITRDTSSRTAYMELSSLRSEDTAVYYCAPYDADYAMDYWGQGTLVTVSS
VL: DIQMTQSPSSLSASVGDRVTITCKASQDISNYLSWFQQKPGKAPKLLIYRANRLVEGVPSRFSGSGSGTDFTLTISSLQPEDFATYFCLQYDEFPLTFGGGTKVEIKR
notes: Humanized variant of MWTx-001, human IgG1/kappa
B3: hzMWTx-002Var anti-TMPRSS6 antibody (antibody, human IgG1, kappa, N297A, V domains shown)
VH: EVQLVQSGAEVKKPGASVKVSCKASGFNIKDYYIHWVRQATGQGLEWMGRIDPEDAESEYAPKFQGRVTITADTSTDTAYMELSSLRSEDTAVYYCTRGDSMMVTYFDYWGQGTLVTVSS
VL: DIQMTQSPSSLSASVGDRVTITCKASQDVSTAVAWYQQKPGKAPKLLIYWAFTRHTGVPSRFSGSGSGTDYALTISSLQPEDFATYYCQQHYRSPWTFGGGTKVEIKR
notes: Humanized variant of MWTx-002, human IgG1/kappa
B4: MWTx-002 anti-TMPRSS6 antibody (antibody, mouse IgG2b, kappa, V domains shown)
VH: EVQLQQSGAELVKPGASVKLSCTASGFNIKDYYIHWVKERTEQGLEWFGRIDPEDGESEYAPKFQGKATLTADTSSNTAYLQLSSLTSEDTAVYYCTRGDSMMVTYFDYWGQGTTLTVSS
VL: DIVMTQSHKFMSTSVGDRVSITCKASQDVSTAVAWYQQKPGQSPKLLIYWAFTRHTGVPDRFTSTGSGTDYALTISSVQAEDLALYYCQQHYRSPWTFGGGTKLEIKR
notes: Mouse monoclonal antibody from a hybridoma (ATCC PTA-126760)
B5: MWTx-001 anti-TMPRSS6 antibody (antibody, mouse IgG2a, kappa, V domains shown)
VH: QVQLQQPGAELAKPGASVKMSCKASGYTFTSYWITWVKQRPGQDLEWIGNIYPGSGSTYYNEKFKSKATLTVDTSSRTAYMQLSSLTSADSAVYYCAPYDSDYAMDYWGQGTSVTVSS
VL: DIKMTQSPSSMYASLGERVTITCKASQDINNYLSWFQQKPGKSPKTLIYRANRLVDGVPSRVSGSGSGQDYSLTISSLEYEDVGIYFCLQYDEFPLTFGAGTKLELKR
notes: Mouse monoclonal antibody from a hybridoma (ATCC PTA-126759)
B6: hzMWTx-003Var anti-TMPRSS6 antibody (antibody, human IgG1, kappa, L234A L235A, V domains shown)
VH: QVQLVQSGAEVKKPGASVKVSCKASGFNIEDYYMHWVRQAPGQRLEWMGRIDPEDAETTYSPKFQGRVTIIPDTSANTAYMELSSLRSEDTAVYYCARSIYLDPMDYWGQGTLVTVSS
VL: DIQMTQSPKSLSASVGDRVTITCRASQDVTTALAWYQQKPGQSPKLLIYWATTRHSGVPSRFSGSGSGTDFTLTISSLQPEDFATYYCQQHYSTPYTFGQGTKLEIKR
notes: Humanized variant of MWTx-003, human IgG1/kappa

How the values were obtained:
[1] = target: T1, mouse TMPRSS6 expressed on HEK293T …; assay: cell surface ELISA on fixed HEK293T cells expressing mouse TMPRSS6
Experimental: HEK293T cells stably expressing mouse TMPRSS6 (generated by LakePharma Inc as described above, FIGS. 4J, 4L, 4N, 4P, 4R, 4T) or cynomolgus monkey (generated in house as described above, FIGS. 4K, 4M, 4O, 4Q, 4S, 4U) were fixed with methanol (100%), and washed with dPBS (Dulbecco’s phosphate-buffered saline, Corning Cellgro) before incubation with various concentrations of anti-TMPRSS6 antibodies and their humanized variants diluted in BSA medium (DMEM + 1% Pen/Strep + 10 mM HEPES + 1 mg/ml BSA (Sigma-Aldrich)). Purified mouse IgG (FIGS. 4J-4O) or Human IgG1 (FIGS. 4P-4U) was used as a control. After incubation, cells were washed with BSA medium and then incubated with goat anti-mouse (Invitrogen, FIGS. 4J-4O) or anti-human (Millipore, FIGS. 4P-4U) IgG conjugated with HRP as a 2° antibody. Finally, cells were washed with dPBS to remove unbound antibody and color developed with ELISA liquid substrate (Sigma-Aldrich), followed by stopping the reaction with addition of the same volume of ELISA liquid substrate of 1 M H₂SO₄. Bound antibody was measured by absorbance at OD₄₅₀ₙₘ.

[2] = target: T2, cynomolgus monkey TMPRSS6 expressed on …; assay: FACS on HEK293T cells transiently expressing cynomolgus monkey TMPRSS6
Experimental: (§1) Selected anti-TMPRSS6 antibodies were tested to determine whether any are capable of binding to TMPRSS6 from mouse and/or cynomolgus monkey. HEK293T cells stably expressing human TMPRSS6 (HuTMPRSS6-(His)₆) (generated by LakePharma Inc as described above), HEK293T cells stably expressing mouse TMPRSS6 (MoTMPRSS6-(His)₆) (SEQ ID NO: 98) (generated by LakePharma Inc as described above) and HEK293T cells transiently expressing cynomolgus monkey TMPRSS6 (CynoTMPRSS6-(His)₆) (SEQ ID NO: 99) (generated in house) were collected. HEK293T cells stably expressing human TMPRSS6 were used as a positive control and HEK293T cells were used as a negative control (as described above). Cells were blocked with dPBS + 3% BSA before incubation with anti-TMPRSS6 antibodies diluted in dPBS + 3% BSA. After incubation, cells were washed with dPBS and followed by another incubation with goat anti-mouse IgG conjugated with AlexaFluor-488 as a 2° antibody (Invitrogen). At last, cells were washed with dPBS to remove unbound antibody, re-suspended with dPBS + 1 mM EDTA, and then subjected to FACS analysis using a NOVOCYTE® Flow Cytometer (ACEA Biosciences, Inc., San Diego CA). Bound antibody was determined by excitation at 488 nm and measurement of emission (FITC-A) at 530 nm. Results for these assays are shown in histogram plots in FIGS. 4A-4I.

[3] = target: T1, mouse TMPRSS6 expressed on HEK293T …; assay: FACS on HEK293T cells stably expressing mouse TMPRSS6
Experimental: as §1

Binder	binding result [1]	binding result [2]	binding result [3]
B1	binds	binds	
B2	binds		
B3	no binding		
B4			no binding
B5	binds		
B6	binds		
